The values that follow come from PMC4742757, “The Prodomain-bound Form of Bone Morphogenetic Protein 10 Is Biologically Active on Endothelial Cells*” (The Journal of Biological Chemistry, 2015).

Data set [1] deals with the molecule itself. The experiment in a line: non-reducing SDS-PAGE; peak gel filtration fraction of purified pBMP10 on non-reducing SDS-PAGE; Coomassie stain and anti-BMP10 immunoblot. (In general: Size exclusion chromatography separates by hydrodynamic size, large species first.)
The target in data set [2] is T1, BMPR-II extracellular domain (ECD), human, residues 27-150 (human, UniProt Q13873-1 27-150).
T1 construct: Bone morphogenetic protein receptor type II, human, extracellular domain, residues 27-150 (NM_001204); Cloned in pET39b as DsbA-(His)6-TEV site-BMPR2 ECD; also called BMPR-II ECD; BMPR2 ECD; source: E. coli Rosetta DE3, periplasmic extract, purified (Ni-NTA, TEV cleavage, second Ni-NTA flowthrough, S75 gel filtration); not shown: DsbA, N-terminal, cleaved; His6, N-terminal, cleaved
T1 sequence (looked up): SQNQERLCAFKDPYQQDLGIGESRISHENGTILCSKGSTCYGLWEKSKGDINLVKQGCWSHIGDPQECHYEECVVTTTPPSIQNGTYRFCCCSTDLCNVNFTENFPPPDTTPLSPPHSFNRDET
The experiment in a line: native gel or EMSA; 10% native PAGE of purified pBMP10 complex alone or with BMPR-II ECD (molar ratio pBMP10:BMPR-II ECD 1:1, 1:2, 1:4); bands excised and immunoblotted for BMP10 GFD and prodomain. The settings on record: both partners purified. (Mobility shift assays separate free from complexed probe on a gel.)

B1: BMP10 growth factor domain (GFD), recombinant human, from the in-house pBMP10 complex (ligand, UniProt O95393 317-424, looked up)
chain: NAKGNYCKRTPLYIDFKEIGWDSWIIAPPGYEAYECRGVCNYPLAEHLTPTKHAIIQALVHLKNSQKASKACCVPTKLEPISILYLDKGVVTYKFKYEGMAVSECGCR
notes: Bone morphogenetic protein 10, human; the mature growth factor domain cut from full-length proBMP10 by furin; Expressed from full-length proBMP10 cDNA, co-transfected with furin; Covalently linked (D-form) and non-covalently linked (M-form) dimers are both in the preparation; also called BMP10 GFD; mature BMP10; source: HEK EBNA cells transfected with proBMP10 and furin in pCEP4; purified from …
On to B1, for which the binding result in data set [1] and in data set [2] was “binds” throughout.
